Source: the DeepSol protein solubility set

Experiment: soluble on expression in E. coli; label from the status in PepcDB or PDB records

Soluble on expression in E. coli, not soluble:
MAHHHHHHMHNVYNIFRQGQKRTYMTTALDRKIREVPYLSRYVILEKLKKKPRYMSECVGTPRRAYDYNTFDKIRYKPTFNPYVHLNKDKKYRLDNWKSRDHENFDPLKCYVRGSRKSYDIPYAILPTKDELGMFHPPILSGRYKADIEKQYYMHDLPWVWHKNFYTGTSHFCDNMVIGKKKWYRKEQQNEKMKESMKKINNLVLEYREECKNKKRYNFLEKVVNTLGDEIAHKYIRKIKNIYL, MAHHHHHHMHPPSSGQGLFPRYGGGWMHQFGHVYALQQELLDPNANNWFRAVELWHTARQEGVAMNVSHFTSILRQCVQPGAWAQSLQVLKQMKRENVRPDVVGVGCALAACVEGKHYDEVENIFATFHKTMLLDSVCHLALIRARQESGNAKGAIAAGKQQQADQVPFLPYTYTHLLEACNAEDDAAYAMELVRNMHSEQWVPSQCAMLAIEDLGRRHERLAAFSRPLLSASDKADSALPSFDASRRLLPPEW, MAHHHHHHMILKEFCAEGYERIPEAIAAGAQRVELCARLDVGGVTPSADTIQNTVEYCHSRNAMVMVIIRCREGNFYYSDEEFQVMLKSVILARRLGADGVVFGAIDTLGNVDPRISILLSAAKGMSLTFHMAFDEIPTEKQFQAIDALTAYGFHRILTHGGSASTNIEENLDWLKELVLYAKNRISIMPGGGVTNLNAEKIARDLGVTEVHGTRVVRFV, MAHHHHHHMKIRTVLRKRIRLHGTNCPGFTCHHNRFSRLLKTWVVVLPPKQLAVYKNGVQLLLQLVTEHLTGDGDVLLQLRYQHMIAKEMLSGRHNTASFRVTYGFLTFDGVNPKVCAMNLLCGNPLIVKHSACLQCTHPSFVRVLNFCVTLKKRRTIVSKPQGRPTKKQLKVAPQHR, MAHHHHHHMKNNEEWEKEKIYDRQLRLWGVKAQNRMMKSNVLILGLSGINIEICKNLILNGINITIIDDNIVDEEMVENIFFLNESDIQNYACVAIFKELKSINKMINMKAYIGRMDTSNDSIIIESELVQNADGEISNTKMGKTFSVEKYISNYTSVCVSCEDYPLYKLVKMNEFCHEKNIGFFAAMCNGKFAFLFSDFGNHVIEESYYKAKEGQRKGETGANKAGELQKEGETGANNGGIPIQYCTLSHFLKVPFENFDKKTNKIIFPMFALILFELNKQLNKSDKSIDEQEFSTFCDQFSLAKCKESLGEITKTYRVAFSPSCSIMGGVTSQEIRKFVSKQHESIPNFCVFDMNQSVVCTSMIS, MAHHHHHHMKWKWYNTKNICTLTNVFLSKHPYKPKTREIIHPHMTPPEYLAPSDCFQAKTGELQQYIPNNYYRVKWIESLRSGEYLGEDYPWNLLPNWKYWRKRKYNVKYEEIPWFISKVKGVSYYKRLNVWMVQWVENGVHRIRRFRCAFGLLQAKLAAEQFRKKLEEAGRVDNRKTERQIRMDYIQKKDERLLRKKKYSKISKGQF, MAHHHHHHMKYRYDEKIHKGLYSEDNSTSMNNRYNNNESTYKMPKEILNRHEKIDLNSLPIDEEIINNLKIILNIEKLYMYQYIIYNEILKNSKHLLIYNKTGTGKTLSYLLPLIQKLINDKFDCNKKVLIITQNIYLCKQLYIYILSIYPTLNVCILSDEKESYNMNNNINNDIIVNIKRNNINPNDKENNDMCDEKYGIHFYLCTPNKLEYFIKNYKNKSRNDKNVMNNILNNINTIVIDEFDYIVEYRKNILNFFFKKDLFNEIHNNNNIRDKNRFNHDIFNKSNYNIYLFTANINEVIKKKIYEHLNGFVFFDFINGIKEHIQKQVAEQHNFNIDVLKNSENVVQLLNKENKNESLCNLNITHFVCKINSASKYKYVCYFLEEFFFHKQKISQKVYNDMVYDEYDKLNYRNMIPMEENKFVNNSEKEGNMKRSNADKINKCIIFANTKEEVEKLYEISLLKPHAVMMHSELLTIQKNENINLFKVGKKNVLITTDIISRGLDIDNVIFILNYSPPTSPNDYIHRSGRTGRGKEKGICLTMYHKYEYRNVDKIMKYTKNKFEVILCPKVEDVYKFSVDKLVENVMKIAPEKYEFFNEKSKELLKKHNTKIIAQILSILLKFDKKSFDVSLLSGKKNYVAVLIKDPFFEVIKNRDDIINIIKVITGNKIITTIIGDVAKCDEGFIVDISSSHVNKIISLFNSSNFEYKSKGLEINTLIELPPIIKEKKNIIRRKKKAPWIT, MAHHHHHHMLDFLDTINKYTLRSGSVTHIGGKISKKCAAQLVGSLVLQGRLNHYCAALAAQFMVSSEVLVVASRDAVQGISCEGCTLERQNLSSVPDTGEIFGVATTGNNVVVGYSAGVAMFSCKLELEKIYTLSEYTNSILGIAVTPDGSCLATGGANAIVTVWSRDMNPVHYLAGHTDWVRFVKFTIMDGRGLELFSTGDDGLVLHWDPLVGTLLSRIDFFHGQDIHAFEVSWRTGLIGIARDTPTICLYKPQISGIASNHAVGAVRLEQIGRIDDAHHSVLTALRFSNDSQWIVSAGEDETLSVSSVCQLKRVFVCETFIVRRHCMTFMNTFTSVCVLASPPESSAIIVVACATDGTVVQWVVNPETFKCTYTKKLQLL, MAHHHHHHMLEDPNFSDFTGLHKSVTALTAANSDLARYGNELHKMILRYQLEVLSGTCNYVEVLSLAAYNGNLTAAEYVNNIEPVILGDDSVSVDIDTRTNTLSFRDSSKAKMLSYFNKIVANVDTVPASSLATTSGRYSDFTHVAASSSKREVMPLAADLDAARARSTSIYALQKACMNSKAERIEEAKKSEDKKRERAVAERREQEEAKKEETQKAYIRKLYAEYNERQRQERGKEVLRKLRIKYPGFKVDESIVYRSAAGFEDELTRLLAAFKRRGVDNDRKEILQANLYERALRALEIPKRKDYEAQNAERTRAERAAARENYLAEHRREYDRRQNEKAVLSKFLHDADEFERTWRKRANIDKPSKRDEQQRLLEEEMRRLGGE, MAHHHHHHMLKELNLNTTFLRQDYRTPLKQLSVDPIFCRRRGGRAILHFEMNQVQGTVAVTLTGCVAQACVPHACGAGWGNMKVEQLRSFFLSFVVVADAAQPSYFLWGEVSVHEMNGTAGNHLAIDGQSLRTCTTASVIPPLSEIPPEVFIVKAKKFRCQMHEKGFGDSTTCP, MAHHHHHHMLKHKYNDSCVQELFYKNNIKLIAIDIDGTLADDTGKISDENLKAIEVCKKGGIEIILASGRLHSYAMKMFTNEQIEKYKIEKLDGVYSHGAYIHMKGYDYVYRKFSYKDLELILFSLGSYNILRNAVFLTVDSAYVINDDIKLIEEYIYTPESEGIISDIEYVKIIDTNYKPILINKIKDIFNIGDIVSIEIYDKLYPNQDIYSDLFKVLFYELQPHYKIYIPSSNNKIVLSPINTAKVHTTQLYAQFYRINLNNILSIGNDDNDIELLSSTGFSVAVKNSTPRALQVARCVSTKTNNENAVANIIYRVLSGRRS, MAHHHHHHMLKLQLDATAIEDELKLSANSKSANTVSSKTPRPDKFAAYHTLRLLFVPIWKRYRFHKQMVWATAIVAKHVLLKVHWRRQRRSERATDTFLHVLRIPRTKLRCAAHLLEGQVVRIQRAFRRHRARVQAVVELNYRKVRRDVEEAYWEAVVTQHEAELAVQQRPFSPVPKAVREVFGARAEARARFGSIQRRTSLLSSAGNSSYDTAVPSNELDVYNFHMIGRLPGSLLRFEMTSAVFAQLRRSAARAHLMDDFSETRARRAGMGGFMEHGDIAPTNTAFVRSRGKCRAQLPCFLPESVYAAILNNTCYLTSLMRDDRKLRAHLRQREHHLESY, MAHHHHHHMLLAMCRYDCVGGCRERVCGGGGGGRGKGGEKKYRTEMGRASKDKRDIYYRKAKEEGYRARSAYKLLQLHEEFNILNRDEIQTGVVVLCAAPGSWSQLLARHLREEVGGRTEKQSLGAPRIVAVDLQEMMPIEGVQLLQGDITSEATAREIIRLLNIKEDTASVNDAYVDSEEDKSAIQTDKGGRSTARRPSLAPGGRNSYSDHTNSCEKKADLVVCDGAPDVTGMHELDEYLQHHLLLAALNITTFVLRCGGTFVTKIFRGPNTPFLVAKSEVFFRHVIIAKPRSSRNASMEAFMVCQDYQPPAGYRPSFDRPLTTTTRCFTPVAPLPPAFMHLQSEGRQITQKEKKGVEDQACMMESVIVPFLACGDLSGYDADMCYDRDSDVPVLPPVHPPRQAPYMTTACKNDEDSVVATNGAEDIMKRRRVE
